The results in this text go back to patent publication US20210403594A1 (IMMUNOGEN, published 2021).

The target of one assay is T1, human EpCAM (CD326) (human, UniProt P16422 24-314).
T1 construct: whole, on cells; Antigen on the surface of the human cells used in flow cytometry and cytotoxicity assays; also called EpCAM on HSC2 cells; human-EpCAM expressing 300-19 cells
T1 sequence (looked up): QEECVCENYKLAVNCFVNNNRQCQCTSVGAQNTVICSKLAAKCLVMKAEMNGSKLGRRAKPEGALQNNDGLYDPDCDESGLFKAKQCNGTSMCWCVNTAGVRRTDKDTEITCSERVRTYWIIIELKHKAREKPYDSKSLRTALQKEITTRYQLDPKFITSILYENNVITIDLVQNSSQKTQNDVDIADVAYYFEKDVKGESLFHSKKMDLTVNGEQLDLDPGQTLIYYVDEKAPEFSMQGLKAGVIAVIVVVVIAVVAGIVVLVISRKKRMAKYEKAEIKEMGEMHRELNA
The assay is described as follows: flow cytometry on HSC2 cells; Geo Mean FL1 against concentration; Alexa Fluor Plus 488 goat anti-mouse IgG (Example 2).

Assay [1] concerns the target cynomolgus EpCAM (cynomolgus monkey). As to the kind of experiment: flow cytometry on cyno kidney epithelial cells; Geo Mean FL1 against concentration; Alexa Fluor Plus 488 goat anti-mouse IgG (Example 2).

Chain of cynomolgus EpCAM (cynomolgus monkey) (Q1WER1 24-314): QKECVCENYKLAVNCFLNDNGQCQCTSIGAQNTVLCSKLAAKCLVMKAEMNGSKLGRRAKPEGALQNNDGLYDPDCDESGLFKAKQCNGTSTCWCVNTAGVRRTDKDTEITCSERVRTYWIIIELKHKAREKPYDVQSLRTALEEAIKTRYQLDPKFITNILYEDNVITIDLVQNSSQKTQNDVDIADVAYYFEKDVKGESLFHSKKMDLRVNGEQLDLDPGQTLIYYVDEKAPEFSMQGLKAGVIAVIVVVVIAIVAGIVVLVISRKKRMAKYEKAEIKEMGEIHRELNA

B1: mEpCAM23 (antibody, mouse IgG2b, kappa)
heavy: EVKLEESGPALVKPGASVRISCKASGYTFTNYYIHWVKQRPGQGLDYIGWIYPGNVYIQYNEKFKGKATLTADKSSSTAFMQLSSLTSEDSAVYFCARDGPWFAYWGQGTLVTVSSAKTTPPSVYPLAPGCGDTTGSSVTLGCLVKGYFPESVTVTWNSGSLSSSVHTFPALLQSGLYTMSSSVTVPSSTWPSQTVTCSVAHPASSTTVDKKLEPSGPISTINPCPPCKECHKCPAPNLEGGPSVFIFPPNIKDVLMISLTPKVTCVVVDVSEDDPDVRISWFVNNVEVHTAQTQTHREDYNSTIRVVSALPIQHQDWMSGKEFKCKVNNKDLPSPIERTISKIKGLVRAPQVYILPPPAEQLSRKDVSLTCLVVGFNPGDISVEWTSNGHTEENYKDTAPVLDSDGSYFIYSKLDIKTSKWEKTDSFSCNVRHEGLKNYYLKKTISRSPGK
light: DIVLTQTPFSNPVTLGTSASISCRSSKSLLHSDGFTYLYWFLQKPGQSPHLLIYQTSNLASGVPDRFSSSGSGTDFTLRISRVEAEDVGVYYCAQNLELPNTFGGGTKLEIKRADAAPTVSIFPPSSEQLTSGGASVVCFLNNFYPKDINVKWKIDGSERQNGVLNSWTDQDSKDSTYSMSSTLTLTKDEYERHNSYTCEATHKTSTSPIVKSFNRNEC
notes: also called muEpCAM-23; muEpCAM23
As for B1, the Kd worked out at 380 pM with human EpCAM (CD326) and 790 pM in assay [1].

A word on the Kd: it is the free concentration of one partner at which half of the binding sites on the other are occupied at equilibrium, for simple one-to-one binding.
